Results taken from the supplement of paper PMC10567573.

B1: LYSMD4 (parent)
chain: LLQRELAQEDSLNKLALQYGCKVA

Variants of: B1
Assay: protein stability index of a GFP-peptide fusion (GPS, HEK-293T) (PSI 1-6); higher = more stable
Details: c terminus: a fixed tail appended
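Also: lentivirally expressed fusions sorted by FACS into six bins by GFP to DsRed ratio, PSI derived from sequencing read proportions per bin multiplied by bin number.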

Variant | protein stability index
LLQRELAQEDSLNKLAAQYGCKVA [L17A] | 1.84
LLQRELAQEDSLNKLAPQYGCKVA [L17P] | 2.98
LLQRELAQEDSLNKLALQYGCHVA [K22H] | 3.15
LLQRELAQEDSLNKLALQYGCTVA [K22T] | 1.32
LLQRHLAQEDSLNKLALQYGCKVA [E5H] | 1.91
LLQRPLAQEDSLNKLALQYGCKVA [E5P] | 1.99
LLQRRLAQEDSLNKLALQYGCKVA [E5R] | 2.05
LLQRTLAQEDSLNKLALQYGCKVA [E5T] | 2.55
LLQRQLAQEDSLNKLALQYGCKVA [E5Q] | 1
LLQRELAQEDSLNKDALQYGCKVA [L15D] | 4.51
LLQRELAQEDSLNKIALQYGCKVA [L15I] | 2.11
LLQRELAQEDSLNKSALQYGCKVA [L15S] | 2.88
LLQRELAQEDYLNKLALQYGCKVA [S11Y] | 2.28
LLQRELAQEDGLNKLALQYGCKVA [S11G] | 2.25
LLQRELAQEDTLNKLALQYGCKVA [S11T] | 1.38
LLQRELAQEDMLNKLALQYGCKVA [S11M] | 2.39
LLQRELAQEDSLNKLALQYVCKVA [G20V] | 1.31
LLQRELAQEDSLNKLALQYCCKVA [G20C] | 1.65
LLQRELAQEDSLNKLALQYQCKVA [G20Q] | 4.53
LLQRELAQEDSLNKLALQYFCKVA [G20F] | 1.13
LLQRELAQEDSLNKLALQYWCKVA [G20W] | 3.05
LLQRELAQEDSLNDLALQYGCKVA [K14D] | 2.23
LLQRELAQEDSLNSLALQYGCKVA [K14S] | 1.75
LLQRELAQEDSLNWLALQYGCKVA [K14W] | 3.01

Variant | protein stability index
LLQRELAQEDSLNFLALQYGCKVA [K14F] | 2.4
LLQRELAQEDSLNTLALQYGCKVA [K14T] | 1.66
LLQRELAQEDSLNNLALQYGCKVA [K14N] | 1.86
LLQRELAQEDSLNKLALNYGCKVA [Q18N] | 3.62
LLQHELAQEDSLNKLALQYGCKVA [R4H] | 1.56
LLQVELAQEDSLNKLALQYGCKVA [R4V] | 3.51
LLQCELAQEDSLNKLALQYGCKVA [R4C] | 3.8
LLQTELAQEDSLNKLALQYGCKVA [R4T] | 1.9
ILQRELAQEDSLNKLALQYGCKVA [L1I] | 2.28
YLQRELAQEDSLNKLALQYGCKVA [L1Y] | 2.5
ALQRELAQEDSLNKLALQYGCKVA [L1A] | 1.96
PLQRELAQEDSLNKLALQYGCKVA [L1P] | 1.51
QLQRELAQEDSLNKLALQYGCKVA [L1Q] | 1.32
LLQRELAQEDSLNKLALQYGSKVA [C21S] | 2.49
LLQRELAQEDSLNKLALQYGKKVA [C21K] | 2.63
LLQRELAQADSLNKLALQYGCKVA [E9A] | 1.53
LLQRELAQEDSLDKLALQYGCKVA [N13D] | 1.03
LLQRELAQEDSLSKLALQYGCKVA [N13S] | 1.84
LLQRELAQEDSLRKLALQYGCKVA [N13R] | 2.23
LLQRELAQEDSLQKLALQYGCKVA [N13Q] | 1.38
LLQRELAQEDSLCKLALQYGCKVA [N13C] | 2.49
LLQRELAQEDSLNKLALQAGCKVA [Y19A] | 3.17
LLQRELAQEDSLNKLALQDGCKVA [Y19D] | 4.57
LLQRELAQEDSLNKLALQKGCKVA [Y19K] | 2.11

Variant | protein stability index
LLQRELAQEDSLNKLALQMGCKVA [Y19M] | 2.02
LLQRELAQEDSLNKLALQCGCKVA [Y19C] | 1.66
LLQRELAQEDSLNKLALQLGCKVA [Y19L] | 2.34
LLQRELAQEDSLNKLILQYGCKVA [A16I] | 2.66
LLQRELAQEDSLNKLTLQYGCKVA [A16T] | 1.78
LLQRELAQEDSLNKLSLQYGCKVA [A16S] | 1.98
LLQRELAQEDSLNKLRLQYGCKVA [A16R] | 1.9
LLQRELAQEDSLNKLHLQYGCKVA [A16H] | 3.4
LSQRELAQEDSLNKLALQYGCKVA [L2S] | 2.06
LMQRELAQEDSLNKLALQYGCKVA [L2M] | 2.27
LKQRELAQEDSLNKLALQYGCKVA [L2K] | 2.6
LFQRELAQEDSLNKLALQYGCKVA [L2F] | 2.25
LCQRELAQEDSLNKLALQYGCKVA [L2C] | 1.67
LLQRELASEDSLNKLALQYGCKVA [Q8S] | 2.25
LLQRELAREDSLNKLALQYGCKVA [Q8R] | 1.47
LLQRELATEDSLNKLALQYGCKVA [Q8T] | 1.45
LLQRELAQEDSRNKLALQYGCKVA [L12R] | 2.49
LLQRELAQEDSVNKLALQYGCKVA [L12V] | 2.31
LLQRELAQEDSWNKLALQYGCKVA [L12W] | 1.23
LLQRELAQEDSMNKLALQYGCKVA [L12M] | 1.97
LLQRELAQEQSLNKLALQYGCKVA [D10Q] | 2.67
LLQRELAQERSLNKLALQYGCKVA [D10R] | 1.68
LLHRELAQEDSLNKLALQYGCKVA [Q3H] | 2.24
LLTRELAQEDSLNKLALQYGCKVA [Q3T] | 1.27

Variant | protein stability index
LLQRELHQEDSLNKLALQYGCKVA [A7H] | 2.72
LLQRELEQEDSLNKLALQYGCKVA [A7E] | 1.8
LLQRELTQEDSLNKLALQYGCKVA [A7T] | 1.87
LLQRELWQEDSLNKLALQYGCKVA [A7W] | 1.95
LLQRELYQEDSLNKLALQYGCKVA [A7Y] | 2.12
LLQRELKQEDSLNKLALQYGCKVA [A7K] | 2.14
LLQRERAQEDSLNKLALQYGCKVA [L6R] | 1.61
LLQREDAQEDSLNKLALQYGCKVA [L6D] | 2.5
LLQREKAQEDSLNKLALQYGCKVA [L6K] | 2.11
LLQREWAQEDSLNKLALQYGCKVA [L6W] | 1.87
LLQREGAQEDSLNKLALQYGCKVA [L6G] | 1.95
LLQRESAQEDSLNKLALQYGCKVA [L6S] | 1.67
LLQRELAQEDSLNKLALQYGCKWA [V23W] | 2.34
LLQRELAQEDSLNKLALQYGCKFA [V23F] | 2.96
LLQRELAQEDSLNKLALQYGCKKA [V23K] | 2.92
LLQRELAQEDSLNKLALQYGCKLA [V23L] | 2.04
LLQRELAQEDSLNKLALQYGCKSA [V23S] | 2.9
LLQRELAQEDSLNKLALQYGCKGA [V23G] | 2.35
LLQRELAQEDSLNKLALQYGCKVD [A24D] | 2.37
LLQRELAQEDSLNKLALQYGCKVK [A24K] | 1.82
LLQRELAQEDSLNKLALQYGCKVY [A24Y] | 2.75
LLQRELAQEDSLNKLALQYGCKVP [A24P] | 2.64
